From IntAct's records for PubMed 24282027

Columns and labels:
mfn1_mouse Mfn1 = mfn1_mouse Mfn1 (UniProt Q811U4)
dyn1_human DNM1 = dyn1_human DNM1 (UniProt Q05193)
Sequence of UniProt Q05193 (Q05193 whole entry): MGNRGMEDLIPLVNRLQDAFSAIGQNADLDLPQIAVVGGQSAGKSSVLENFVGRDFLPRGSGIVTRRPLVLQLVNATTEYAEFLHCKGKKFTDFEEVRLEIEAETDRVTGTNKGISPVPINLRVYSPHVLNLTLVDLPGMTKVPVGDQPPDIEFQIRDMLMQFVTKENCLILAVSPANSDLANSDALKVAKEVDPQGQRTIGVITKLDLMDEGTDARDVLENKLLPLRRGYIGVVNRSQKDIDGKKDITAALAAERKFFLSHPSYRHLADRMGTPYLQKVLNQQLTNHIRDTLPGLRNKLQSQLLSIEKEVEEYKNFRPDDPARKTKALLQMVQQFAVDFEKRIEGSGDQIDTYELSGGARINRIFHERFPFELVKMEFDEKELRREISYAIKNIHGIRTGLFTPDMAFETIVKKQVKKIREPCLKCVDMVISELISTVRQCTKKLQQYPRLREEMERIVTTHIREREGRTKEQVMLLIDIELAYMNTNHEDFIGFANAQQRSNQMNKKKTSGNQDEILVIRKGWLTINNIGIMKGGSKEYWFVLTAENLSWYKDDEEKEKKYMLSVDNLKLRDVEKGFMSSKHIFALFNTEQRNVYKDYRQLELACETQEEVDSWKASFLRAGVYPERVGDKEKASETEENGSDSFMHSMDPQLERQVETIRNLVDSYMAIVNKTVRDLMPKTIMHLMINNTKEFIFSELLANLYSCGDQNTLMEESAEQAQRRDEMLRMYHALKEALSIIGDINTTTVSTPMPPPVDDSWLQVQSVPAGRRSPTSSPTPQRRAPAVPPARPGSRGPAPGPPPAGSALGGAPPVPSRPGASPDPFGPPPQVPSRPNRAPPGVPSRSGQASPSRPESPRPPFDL

Sequence of UniProt Q811U4 (Q811U4 whole entry): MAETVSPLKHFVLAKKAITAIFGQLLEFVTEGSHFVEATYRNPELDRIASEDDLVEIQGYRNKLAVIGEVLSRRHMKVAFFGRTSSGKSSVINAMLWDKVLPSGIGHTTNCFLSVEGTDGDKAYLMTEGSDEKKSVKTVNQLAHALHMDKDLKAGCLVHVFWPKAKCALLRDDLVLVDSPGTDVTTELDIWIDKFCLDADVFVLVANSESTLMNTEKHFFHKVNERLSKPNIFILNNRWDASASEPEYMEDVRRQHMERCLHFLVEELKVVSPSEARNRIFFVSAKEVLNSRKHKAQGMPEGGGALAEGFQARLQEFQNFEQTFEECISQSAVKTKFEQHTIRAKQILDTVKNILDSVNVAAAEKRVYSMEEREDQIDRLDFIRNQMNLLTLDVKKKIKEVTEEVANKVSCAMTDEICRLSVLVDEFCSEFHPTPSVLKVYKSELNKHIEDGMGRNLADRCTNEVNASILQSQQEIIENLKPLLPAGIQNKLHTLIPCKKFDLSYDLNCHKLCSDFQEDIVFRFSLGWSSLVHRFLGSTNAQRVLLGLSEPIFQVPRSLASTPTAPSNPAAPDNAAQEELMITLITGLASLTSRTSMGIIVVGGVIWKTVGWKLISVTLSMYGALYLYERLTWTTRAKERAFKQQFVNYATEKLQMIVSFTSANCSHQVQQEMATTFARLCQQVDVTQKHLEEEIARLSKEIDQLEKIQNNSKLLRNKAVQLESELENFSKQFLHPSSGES

effect of a mutation on the interaction (mfn1_mouse Mfn1): increasing interaction
effect of a mutation on the interaction (dyn1_human DNM1): increasing interaction
Substance: Leucine-rich repeat serine/threonine-protein kinase 2 (Homo sapiens), Q5S007 G2019S
